Test results: paper doi:10.1101/271593 (bioRxiv, 2018)

B1: HsMTHFR_(1-656) treated with calf intestine alkaline phosphatase (dephosphorylated) (enzyme)
chain: not shown
B2: HsMTHFR_(38-644) (domain or fragment)
chain: not shown

Key:
native MS = target: the molecule itself; test: native MS
crystal structure = target: the molecule itself; test: crystal structure

Protein | stoichiometry N (native MS) | stoichiometry N (crystal structure)
B1 | 2 | 
B2 |  | 2
